Results taken from patent publication US20080274950A1 (BABRAHAM INSTITUTE, published 2008).

Tests used:
[1] = molecular target: T1, human N-cadherin naturally expressed on DX3 melanoma cells (human, UniProt P19022 160-906); test: adhesion of DX3 cells to coated monomeric N-cadherin-Fc, oxidising buffer
T1 construct: also called DX3 Cells; N-cadherin+ve DX3 melanoma cells
T1 sequence: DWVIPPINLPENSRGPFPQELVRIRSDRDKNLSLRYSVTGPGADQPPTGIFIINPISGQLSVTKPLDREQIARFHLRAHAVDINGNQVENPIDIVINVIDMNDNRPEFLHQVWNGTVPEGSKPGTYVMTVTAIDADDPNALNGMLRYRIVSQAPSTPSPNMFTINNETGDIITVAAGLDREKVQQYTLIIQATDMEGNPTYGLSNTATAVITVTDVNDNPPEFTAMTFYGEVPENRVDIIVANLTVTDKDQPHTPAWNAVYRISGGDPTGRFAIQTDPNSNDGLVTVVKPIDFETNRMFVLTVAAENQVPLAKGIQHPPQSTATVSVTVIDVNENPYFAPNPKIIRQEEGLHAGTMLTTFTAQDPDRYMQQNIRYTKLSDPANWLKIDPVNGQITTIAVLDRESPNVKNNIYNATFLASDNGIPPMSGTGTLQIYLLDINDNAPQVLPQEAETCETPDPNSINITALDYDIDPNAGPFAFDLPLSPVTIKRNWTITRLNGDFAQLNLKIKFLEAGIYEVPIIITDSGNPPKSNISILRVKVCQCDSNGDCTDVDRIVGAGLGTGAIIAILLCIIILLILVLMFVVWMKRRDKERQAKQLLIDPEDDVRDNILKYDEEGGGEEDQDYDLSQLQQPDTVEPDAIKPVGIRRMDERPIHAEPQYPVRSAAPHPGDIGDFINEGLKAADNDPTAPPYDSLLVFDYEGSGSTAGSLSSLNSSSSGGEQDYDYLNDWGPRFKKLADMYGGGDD
Protocol: Monomeric or dimeric N-cadherin-Fc fusion protein in Cos cell supernatants was added as described for the ELISA assay. DX3 Cells, a human melanoma cell line which expresses N-cadherin, were dissociated with Cell Dissociation Solution (Sigma, code C5789), resuspended in HBSS with 2% FCS and assessed for adhesion to wild type or mutant N-cadherin-Fc as previously described (Corps et al., 2001). Microscopic examination established that the cells were present as a single cell suspension as they settled onto the plate. For assays conducted in reducing conditions, 10 mM DTT was present during the adhesion and washing steps. Determinations were conducted in triplicate and results are presented as mean +/−sem.

[2] = molecular target: the molecule itself; test: disulphide-bonded cis-dimers on the cell surface; non-reducing SDS-PAGE and immunoblot
[3] = molecular target: T2, full length chicken N-cadherin with the N-terminus extended by two glycine residues (GG) expressed on K562 … (chicken, UniProt P10288 165-912); test: adhesion of K562 transfectants to coated N-cadherin Fc
T2 construct: whole, on cells; also called cells expressing the GG N-terminal extension mutant; K562 GG
T2 sequence: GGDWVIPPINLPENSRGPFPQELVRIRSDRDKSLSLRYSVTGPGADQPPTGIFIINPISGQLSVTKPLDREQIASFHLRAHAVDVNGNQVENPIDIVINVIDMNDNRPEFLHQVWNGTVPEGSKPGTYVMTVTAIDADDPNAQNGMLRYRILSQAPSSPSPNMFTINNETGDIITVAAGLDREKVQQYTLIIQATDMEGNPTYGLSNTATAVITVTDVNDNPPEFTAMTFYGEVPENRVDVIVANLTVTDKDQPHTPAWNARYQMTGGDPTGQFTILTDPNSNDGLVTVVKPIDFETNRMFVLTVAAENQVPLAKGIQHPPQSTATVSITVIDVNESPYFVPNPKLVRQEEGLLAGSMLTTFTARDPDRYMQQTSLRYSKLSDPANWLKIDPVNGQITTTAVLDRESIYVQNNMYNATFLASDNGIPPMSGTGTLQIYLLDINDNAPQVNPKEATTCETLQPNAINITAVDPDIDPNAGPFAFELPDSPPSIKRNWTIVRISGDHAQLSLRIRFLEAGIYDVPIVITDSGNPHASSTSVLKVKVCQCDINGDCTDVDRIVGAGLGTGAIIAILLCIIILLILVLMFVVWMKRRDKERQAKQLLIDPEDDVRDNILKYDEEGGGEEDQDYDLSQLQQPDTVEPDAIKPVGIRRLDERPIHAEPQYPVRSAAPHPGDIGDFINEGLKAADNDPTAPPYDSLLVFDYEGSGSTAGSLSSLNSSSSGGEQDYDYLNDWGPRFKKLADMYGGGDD
Protocol: Adhesion tests were conducted substantially as described in Example 1. Briefly, K562 Cells or L cells transfected with wild type or mutant N-cadherin were allowed to settle for 45 minutes at 37° C. onto N-cadherin Fc fusion proteins coated at 1 μg/ml to a 96 well plate. Non-adherent cells were then washed off and residual adherent cells were quantitated by measuring acid phosphatase activity. Assays were conducted in quadruplicate and results are expressed as % cells adhering +/−SEM.

[4] = molecular target: the molecule itself; test: bead aggregation assay, 1.25 mM CaCl2
Protocol: Dynabeads (Dynal Biotech) coupled to Protein A were coated with N-cadherin Fc at 1 μg/ml in calcium and magnesium-free HBSS containing 0.1% Tween 20, 1% FCS and 4 mM EDTA. Eppendorf tubes containing beads and fusion protein were rotated slowly for 1 hour at room temperature to allow binding to take place. The beads were then washed in the above assay buffer lacking EDTA and then resuspended in the same buffer supplemented with 1.25 mM CaCl₂. Beads were allowed to aggregate in a volume of 100 μl for 2 hours at 37° C. by slow rotation, in an eppendorf tube, at approximately 20 rpm. Aggregation was then assessed by light microscopy.
In the experiments described so far in this example, disruption of the salt bridge prevented intramolecular docking of Trp 2 in one or both components of the dimer. In an alternative strategy to prevent intramolecular docking, we removed Trp2 by introducing the mutation W2G or blocked the hydrophobic acceptor pocket with an isoleucine side chain projecting into the cavity using the mutation A801. N-cadherin Fc fusion proteins with these mutations were then tested against our panel of K562 transfectants (FIG. 17a). In keeping with the explanation given in FIG. 5, the W2G mutant acted as a strand acceptor and therefore adhered strongly to the E89A mutant whereas the A80I mutant was a strand donor and adhered to the GG extension mutant. […] In contrast, beads coated with the W2G or A801 mutants and tested separately clustered in twos and threes, whereas beads coated with the negative control mutant, D134A, were entirely monodisperse. To test whether all five extracellular domains of N-cadherin (EC1-EC5) are necessary for the strong adhesive interaction between the complementary mutants, we compared the adhesive activity of the W2G mutant prepared as a full length (EC1-EC5) Fc fusion protein with that of the same mutant prepared as a truncated construct containing only cadherin domains EC1 and EC2.

B1: monomeric chicken N-cadherin-Fc with the mutation D27C (Fc fusion, UniProt P10288 165-728, looked up)
chain: DWVIPPINLPENSRGPFPQELVRIRSCRDKSLSLRYSVTGPGADQPPTGIFIINPISGQLSVTKPLDREQIASFHLRAHAVDVNGNQVENPIDIVINVIDMNDNRPEFLHQVWNGTVPEGSKPGTYVMTVTAIDADDPNAQNGMLRYRILSQAPSSPSPNMFTINNETGDIITVAAGLDREKVQQYTLIIQATDMEGNPTYGLSNTATAVITVTDVNDNPPEFTAMTFYGEVPENRVDVIVANLTVTDKDQPHTPAWNARYQMTGGDPTGQFTILTDPNSNDGLVTVVKPIDFETNRMFVLTVAAENQVPLAKGIQHPPQSTATVSITVIDVNESPYFVPNPKLVRQEEGLLAGSMLTTFTARDPDRYMQQTSLRYSKLSDPANWLKIDPVNGQITTTAVLDRESIYVQNNMYNATFLASDNGIPPMSGTGTLQIYLLDINDNAPQVNPKEATTCETLQPNAINITAVDPDIDPNAGPFAFELPDSPPSIKRNWTIVRISGDHAQLSLRIRFLEAGIYDVPIVITDSGNPHASSTSVLKVKVCQCDINGDCTDVDRIVGAGLGT
notes: extracellular domain; not shown: hinge region, CH2 and CH3 domains of human IgG1 heavy chain (vector pIgSig)
**Q.** Does B1 bind [1]?
**A.** Result: binds

B2: full length chicken N-cadherin with the mutation D1C expressed on K562 cells (receptor, UniProt P10288 165-912, looked up)
chain: CWVIPPINLPENSRGPFPQELVRIRSDRDKSLSLRYSVTGPGADQPPTGIFIINPISGQLSVTKPLDREQIASFHLRAHAVDVNGNQVENPIDIVINVIDMNDNRPEFLHQVWNGTVPEGSKPGTYVMTVTAIDADDPNAQNGMLRYRILSQAPSSPSPNMFTINNETGDIITVAAGLDREKVQQYTLIIQATDMEGNPTYGLSNTATAVITVTDVNDNPPEFTAMTFYGEVPENRVDVIVANLTVTDKDQPHTPAWNARYQMTGGDPTGQFTILTDPNSNDGLVTVVKPIDFETNRMFVLTVAAENQVPLAKGIQHPPQSTATVSITVIDVNESPYFVPNPKLVRQEEGLLAGSMLTTFTARDPDRYMQQTSLRYSKLSDPANWLKIDPVNGQITTTAVLDRESIYVQNNMYNATFLASDNGIPPMSGTGTLQIYLLDINDNAPQVNPKEATTCETLQPNAINITAVDPDIDPNAGPFAFELPDSPPSIKRNWTIVRISGDHAQLSLRIRFLEAGIYDVPIVITDSGNPHASSTSVLKVKVCQCDINGDCTDVDRIVGAGLGTGAIIAILLCIIILLILVLMFVVWMKRRDKERQAKQLLIDPEDDVRDNILKYDEEGGGEEDQDYDLSQLQQPDTVEPDAIKPVGIRRLDERPIHAEPQYPVRSAAPHPGDIGDFINEGLKAADNDPTAPPYDSLLVFDYEGSGSTAGSLSSLNSSSSGGEQDYDYLNDWGPRFKKLADMYGGGDD
notes: whole, on cells; also called D1C cells; K562 D1C
**Q.** Does B2 bind [2]?
**A.** Result: binds

B3: full length chicken N-cadherin with the mutation D27C expressed on K562 cells (receptor, UniProt P10288 165-912, looked up)
chain: DWVIPPINLPENSRGPFPQELVRIRSCRDKSLSLRYSVTGPGADQPPTGIFIINPISGQLSVTKPLDREQIASFHLRAHAVDVNGNQVENPIDIVINVIDMNDNRPEFLHQVWNGTVPEGSKPGTYVMTVTAIDADDPNAQNGMLRYRILSQAPSSPSPNMFTINNETGDIITVAAGLDREKVQQYTLIIQATDMEGNPTYGLSNTATAVITVTDVNDNPPEFTAMTFYGEVPENRVDVIVANLTVTDKDQPHTPAWNARYQMTGGDPTGQFTILTDPNSNDGLVTVVKPIDFETNRMFVLTVAAENQVPLAKGIQHPPQSTATVSITVIDVNESPYFVPNPKLVRQEEGLLAGSMLTTFTARDPDRYMQQTSLRYSKLSDPANWLKIDPVNGQITTTAVLDRESIYVQNNMYNATFLASDNGIPPMSGTGTLQIYLLDINDNAPQVNPKEATTCETLQPNAINITAVDPDIDPNAGPFAFELPDSPPSIKRNWTIVRISGDHAQLSLRIRFLEAGIYDVPIVITDSGNPHASSTSVLKVKVCQCDINGDCTDVDRIVGAGLGTGAIIAILLCIIILLILVLMFVVWMKRRDKERQAKQLLIDPEDDVRDNILKYDEEGGGEEDQDYDLSQLQQPDTVEPDAIKPVGIRRLDERPIHAEPQYPVRSAAPHPGDIGDFINEGLKAADNDPTAPPYDSLLVFDYEGSGSTAGSLSSLNSSSSGGEQDYDYLNDWGPRFKKLADMYGGGDD
notes: whole, on cells; also called K562 D27C
**Q.** Does B3 bind [2]?
**A.** Result: binds

B4: chicken N-cadherin Fc fusion protein with the mutations E89A and D134A (Fc fusion, UniProt P10288 165-728, looked up)
chain: DWVIPPINLPENSRGPFPQELVRIRSDRDKSLSLRYSVTGPGADQPPTGIFIINPISGQLSVTKPLDREQIASFHLRAHAVDVNGNQVANPIDIVINVIDMNDNRPEFLHQVWNGTVPEGSKPGTYVMTVTAIAADDPNAQNGMLRYRILSQAPSSPSPNMFTINNETGDIITVAAGLDREKVQQYTLIIQATDMEGNPTYGLSNTATAVITVTDVNDNPPEFTAMTFYGEVPENRVDVIVANLTVTDKDQPHTPAWNARYQMTGGDPTGQFTILTDPNSNDGLVTVVKPIDFETNRMFVLTVAAENQVPLAKGIQHPPQSTATVSITVIDVNESPYFVPNPKLVRQEEGLLAGSMLTTFTARDPDRYMQQTSLRYSKLSDPANWLKIDPVNGQITTTAVLDRESIYVQNNMYNATFLASDNGIPPMSGTGTLQIYLLDINDNAPQVNPKEATTCETLQPNAINITAVDPDIDPNAGPFAFELPDSPPSIKRNWTIVRISGDHAQLSLRIRFLEAGIYDVPIVITDSGNPHASSTSVLKVKVCQCDINGDCTDVDRIVGAGLGT
notes: extracellular domain; also called D134A in combination with E89A; not shown: hinge region, CH2 and CH3 domains of human IgG1 heavy chain (vector pIgSig)
**Q.** Does B4 bind [3]?
**A.** Result: no binding (tested: Fc fusion protein coated at 1 µg/ml)

B5: chicken N-cadherin Fc fusion protein with the pocket-blocking mutation A80I (Fc fusion, UniProt P10288 165-728, looked up)
chain: DWVIPPINLPENSRGPFPQELVRIRSDRDKSLSLRYSVTGPGADQPPTGIFIINPISGQLSVTKPLDREQIASFHLRAHIVDVNGNQVENPIDIVINVIDMNDNRPEFLHQVWNGTVPEGSKPGTYVMTVTAIDADDPNAQNGMLRYRILSQAPSSPSPNMFTINNETGDIITVAAGLDREKVQQYTLIIQATDMEGNPTYGLSNTATAVITVTDVNDNPPEFTAMTFYGEVPENRVDVIVANLTVTDKDQPHTPAWNARYQMTGGDPTGQFTILTDPNSNDGLVTVVKPIDFETNRMFVLTVAAENQVPLAKGIQHPPQSTATVSITVIDVNESPYFVPNPKLVRQEEGLLAGSMLTTFTARDPDRYMQQTSLRYSKLSDPANWLKIDPVNGQITTTAVLDRESIYVQNNMYNATFLASDNGIPPMSGTGTLQIYLLDINDNAPQVNPKEATTCETLQPNAINITAVDPDIDPNAGPFAFELPDSPPSIKRNWTIVRISGDHAQLSLRIRFLEAGIYDVPIVITDSGNPHASSTSVLKVKVCQCDINGDCTDVDRIVGAGLGT
notes: extracellular domain; also called A80I mutant; not shown: hinge region, CH2 and CH3 domains of human IgG1 heavy chain (vector pIgSig)
**Q.** Does B5 bind [3]?
**A.** Result: binds

**Q.** Does B5 bind [4]?
**A.** Result: binds
